Assay: yeast display, Sf9 membrane polyspecificity reagent, FACS + sequencing; frameworks hold sequencing errors
Summary of the method: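 Using colony PCR, genes from sorted yeast display clones were amplified, then sequenced on MiSeq at 2 × 250 and filtered by CDR length. The clones had been stained with 10% biotinylated, detergent-solubilized Sf9 membrane reagent for 1 hour at 4 °C and sorted by FACS into low and high (top ~1%) gates on anti-HA and streptavidin fluorescence. Polyreactivity labels come from the gate of origin.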

Sequence | polyreactivity (PSR sort gate)
QVQLVESGGGLVQAGGSLRLSCAASGRIFRWNAMGWYRQAPGKERELVAVISSGGSTNYADSVKGRFTISRDNAKNTVYLQMNSLKPEDTAVYYCAADEGYVWPYYGWGFGKYDYWGQGTQVTVSS | low polyreactivity
QVQLVESGGGLVQAGGSLRLSCAASGRIFRWYAMGWYRQAPGKERELVAAISWSGGRTYYADSVKGRFTISRDNAKNTVYFQMNSLKPEDTAVYYCAAEGAIPRYYIGGVDYWGQGTQVTVSS | high polyreactivity
QVQLVESGGGLVQAGGSLRLSCAASGRIFRWYAMGWYRQAPGKERELVAAISYSGGSTYYADSVKGRFTISRDNAKNTVYLQMNSLKPEDTAVYYCAAATYYKFDYWGQGTQVTVSS | high polyreactivity
QVQLVESGGGLVQAGGSLRLSCAASGRIFRWYAMGWYRQAPGKERELVATISSTGGSTYYADSVKGRFTLSRDNAKNTVYLQMNSLKPEDTAVYYCNAVVYGIFLYAWYDYWGQGTQVTVSS | low polyreactivity
QVQLVESGGGLVQAGGSLRLSCAASGRIFRYNAMGWSRQAPGKERELVAAISRRGGTTYYADSVKGRFTISRDNAKNTVYLQMNSLKPEDTAVYDCAAQYRQRRHDYWGQGTQVTVSS | high polyreactivity
QVQLVESGGGLVQAGGSLRLSCAASGRIFRYNAMGWYRQAPGKERELVAAITRSGGRTYYADSVKGRFTISRDNAKYTVYLQMNSLKPEDTAVYYCAADKYPSSPYVGDVDYWGQGTQVTVSS | high polyreactivity
QVQLVESGGGLVQAGGSLRLSCAASGRIFRYNAMGWYRQAPGKGRELVAAITWDGGSTYYADSVKGRFTISRDNAKYTVYLQMNSLKPEYTAVYYCKAVTRSYYSDYYWGQGTQVTVSS | high polyreactivity
QVQLVESGGGLVQAGGSLRLSCAASGRIFRYYAMGCYRQAPGKERELVAAITRGGSTNYADSVKGRFTISRDNAKNTVYLQMNSLKPEDTAVYYCAAAYRGRYKYYYWGQGSQVTVSS | high polyreactivity
QVQLVESGGGLVQAGGSLRLSCAASGRIFRYYAMGSYRQAPGKERELVAAISRSGGSTYYADSVKGRFTISRDNAKNTVYLQMNSLKPEDTAVYSCAARLAGRGSSSSRVVRTGGYWGQGTQVTVSS | high polyreactivity
QVQLVESGGGLVQAGGSLRLSCAASGRIFRYYAMGWYRQAPGIERELVAAISYRGGSTYYADSVKGRFTISRDNAKNTVYLQMNSLKPEDTAVYYCNIVPRIDTRYDYWGQGTQVTVSS | high polyreactivity
QVQLVESGGGLVQAGGSLRLSCAASGRIFRYYAMGWYRQAPGKERELVAAIRSGGSTNYADSVKGRFTISRDNATNTVYLQLNSLKPEDTAVYYCNARYRYFKGGYWGQGTQVTVAS | high polyreactivity
QVQLVESGGGLVQAGGSLRLSCAASGRIFRYYAMGWYRQAPGKERELVAAISRSGSTNYADSVKGRFTISRDNAKNTVYLQMNSLKPEDTAVYYCAADSNYLYFWRRYKRMDYWGQGTQVTVSS | high polyreactivity
QVQLVESGGGLVQAGGSLRLSCAASGRIFRYYAMGWYRQAPGKERELVAAITGRGTSTYYADSVKGRFTISRDNAKNTVYVQMNSLKPEDTAVYYCAAGSVLRYWAGDYWGQGTQVTVSS | low polyreactivity
QVQLVESGGGLVQAGGSLRLSCAASGRIFRYYAMGWYRQAPGKERELVAAITRGGSTNYADSVKGRFTISRDNAKNTVYLQMNSLKPEDTAVYYCATRQSWYPRWMDYWGQGTQVTVSS | high polyreactivity
QVQLVESGGGLVQAGGSLRLSCAASGRIFRYYAMGWYRQAPGKERELVAGISWRGSSTYYADSVKGRFTISRDNAKNTVYLQMNSLKPADTAVYYCNRDLSIIPVTGGRFYYWGQGTQVTVSS | high polyreactivity
QVQLVESGGGLVQAGGSLRLSCAASGRIFRYYAMGWYRQAPGKERELVATIDWSVGSTYYADSVKGRFTISRDNAKNTVYLQMNSLKPEDTAVYYCAKRGPQVWTFDYDSSGQGTQVTVSS | low polyreactivity
QVQLVESGGGLVQAGGSLRLSCAASGRIFRYYAMGWYRQAPGKETELVAAISKSGGGTFYADSVKGRFTISRDNAKNPVYLQMNSLKPEDTAVYYCAARDKGLGKHDYWGQGTQVTVSS | high polyreactivity
QVQLVESGGGLVQAGGSLRLSCAASGRIFRYYAMGWYRQAPWKERELVAVINWSGGSTYYADSVKGRFTISRDNAKNTVYLLMNSLKPEDTAVYYCNVYSVYPQFNYWGQGTQVTVSS | high polyreactivity
QVQLVESGGGLVQAGGSLRLSCAASGRIFRYYVMGWYRHAPGKEREFVASISGRGASTYYADSVKGRFTISRDNAKNTVYLLMNSLKPEDTAVYYCNADVWLLSYFPEYDYWGQGTQVTVSS | low polyreactivity
QVQLVESGGGLVQAGGSLRLSCAASGRIFSANAMGWYRQAPGKERELVATISTGGGRTYYADSVKGRFTISRDNAKNTVYLQMNSLKPVDTAVYYCNATRNYARVRYYYWGQGTQVTVSS | high polyreactivity
QVQLVESGGGLVQAGGSLRLSCAASGRIFSAYAMGWYRQAPGKEREFVAAISARGGSTNYADSVKGRFTISRDNAKNTVYLQMNSLNPEDTAVYYCNDRYVQWYWIAKVIHIDNDYWGQGTQVTVSS | low polyreactivity

From the nanobody polyreactivity screen of Harvey et al. (2022)
